Measurements reported in the supplement of paper PMC10065799, “High-throughput profiling of sequence recognition by tyrosine kinases and SH2 domains using bacterial peptide display” (eLife, 2023).

Each sequence was assayed against FGFR3 (UniProt P22607) (assay: phosphorylation enrichment, bacterial display (enrichment ratio); higher = better substrate or ligand; peptides without Tyr show the background).
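Further: 11-residue human phosphosite peptides and single-mutation variants displayed on the E. coli surface, counted by deep sequencing, each peptide's frequency after selection divided by its frequency in the unselected input library; frequency after pTyr selection over input frequency; kinase dosed for 20-30% of maximal phosphorylation in three min.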

FGFR3, sequence (P22607 whole entry, looked up): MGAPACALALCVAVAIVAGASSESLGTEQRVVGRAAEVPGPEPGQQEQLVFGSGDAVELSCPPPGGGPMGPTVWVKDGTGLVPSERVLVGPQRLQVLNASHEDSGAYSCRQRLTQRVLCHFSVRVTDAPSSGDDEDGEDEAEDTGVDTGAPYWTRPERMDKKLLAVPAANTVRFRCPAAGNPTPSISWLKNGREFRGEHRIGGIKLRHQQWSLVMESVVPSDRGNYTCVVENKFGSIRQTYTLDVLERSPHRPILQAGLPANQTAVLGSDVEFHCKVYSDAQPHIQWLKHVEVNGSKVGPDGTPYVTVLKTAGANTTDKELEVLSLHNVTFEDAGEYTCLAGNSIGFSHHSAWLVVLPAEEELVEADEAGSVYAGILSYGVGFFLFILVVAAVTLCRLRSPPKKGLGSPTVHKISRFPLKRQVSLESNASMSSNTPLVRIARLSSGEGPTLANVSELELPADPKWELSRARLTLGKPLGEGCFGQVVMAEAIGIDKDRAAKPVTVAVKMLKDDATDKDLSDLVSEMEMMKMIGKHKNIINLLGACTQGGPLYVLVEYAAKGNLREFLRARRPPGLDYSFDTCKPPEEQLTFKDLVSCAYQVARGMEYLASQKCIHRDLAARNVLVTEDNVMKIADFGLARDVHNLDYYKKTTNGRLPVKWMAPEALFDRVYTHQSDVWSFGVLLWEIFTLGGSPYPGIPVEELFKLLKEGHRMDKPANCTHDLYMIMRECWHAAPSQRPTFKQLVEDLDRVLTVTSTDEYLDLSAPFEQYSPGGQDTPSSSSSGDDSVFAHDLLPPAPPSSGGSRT

| Sequence | phosphorylation enrichment |
| --- | --- |
| HPFHVYSQPGM [BAG3_Y114_P115S] | 0.908 |
| KLQKYYRQNPD [EHHADH_Y683] | 0.419 |
| KDGIGYISAAE [CALM2_Y100_N98I] | 0.517 |
| QFLMMYVWSAS [ABCD1_Y337_K336M] | 1.22 |
| GGRKGYGGFSR [RECQL5_Y478_D480G] | 0.452 |
| CHSDDYVHISL [TSC1_Y406] | 1.07 |
| PVQAADQKVVA [HBB_Y131_Y131D] | 0.816 |
| FKDVTYLKEEK [UBE3A_Y127_T129K] | 0.728 |
| PVVKLYATEGR [RP1_Y199_D202E] | 0.568 |
| VFFFSYLLKNH [PTEN_Y180_YF] | 0.729 |
| KPLMPYMRFSR [SMARCE1_Y73_YF] | 0.547 |
| SRDDDYETIAM [NPY1R_Y347] | 0.753 |
| EEGNPYFSSAR [MCCC2_Y520_YF] | 0.648 |
| DRPASYKKKSM [PDGFRA_Y768] | 0.347 |
| KANEYYPVVLI [ADAMTS18_Y765] | 9.02 |
| VDASYYGGRGV [ANTXR2_Y381] | 0.647 |
| MDDPRYGMCPL [ZNF100_Y6] | 0.838 |
| RGEKQYLATPL [ALOX12_Y295_A298T] | 0.711 |
| SLGSPYEQPPR [PDLIM4_Y137_G138E] | 0.565 |
| AFLEDYFTSTE [SRC_Y522] | 1.42 |
| AEMKRYSESSS [RAI14_Y869_A870S] | 0.523 |
| VECQVYAEDPF [PCCA_Y401_R399Q_YF] | 1.16 |
| TYGVVYKARNK [CDK2_Y19] | 0.515 |
| FSNVLYRPRGP [TMIGD2_Y197_A202P_YF] | 0.444 |
| EAAFVYVISSA [WNT4_Y113_A114V] | 1.09 |
| IFLGAYDRFLP [SLC22A5_Y486_V481I_YF] | 0.608 |
| LLKNMYLMLDN [STAT1_Y203_K201N] | 1.65 |
| KTGDFYDLFGG [PTPN11_Y63_N58K_YF] | 0.6 |
| YFCRWYRNRKS [EREG_Y144] | 0.515 |

What follows are sequences tested against Jak2 (UniProt O60674) in the same assay as above.
Jak2, sequence (O60674 whole entry, looked up): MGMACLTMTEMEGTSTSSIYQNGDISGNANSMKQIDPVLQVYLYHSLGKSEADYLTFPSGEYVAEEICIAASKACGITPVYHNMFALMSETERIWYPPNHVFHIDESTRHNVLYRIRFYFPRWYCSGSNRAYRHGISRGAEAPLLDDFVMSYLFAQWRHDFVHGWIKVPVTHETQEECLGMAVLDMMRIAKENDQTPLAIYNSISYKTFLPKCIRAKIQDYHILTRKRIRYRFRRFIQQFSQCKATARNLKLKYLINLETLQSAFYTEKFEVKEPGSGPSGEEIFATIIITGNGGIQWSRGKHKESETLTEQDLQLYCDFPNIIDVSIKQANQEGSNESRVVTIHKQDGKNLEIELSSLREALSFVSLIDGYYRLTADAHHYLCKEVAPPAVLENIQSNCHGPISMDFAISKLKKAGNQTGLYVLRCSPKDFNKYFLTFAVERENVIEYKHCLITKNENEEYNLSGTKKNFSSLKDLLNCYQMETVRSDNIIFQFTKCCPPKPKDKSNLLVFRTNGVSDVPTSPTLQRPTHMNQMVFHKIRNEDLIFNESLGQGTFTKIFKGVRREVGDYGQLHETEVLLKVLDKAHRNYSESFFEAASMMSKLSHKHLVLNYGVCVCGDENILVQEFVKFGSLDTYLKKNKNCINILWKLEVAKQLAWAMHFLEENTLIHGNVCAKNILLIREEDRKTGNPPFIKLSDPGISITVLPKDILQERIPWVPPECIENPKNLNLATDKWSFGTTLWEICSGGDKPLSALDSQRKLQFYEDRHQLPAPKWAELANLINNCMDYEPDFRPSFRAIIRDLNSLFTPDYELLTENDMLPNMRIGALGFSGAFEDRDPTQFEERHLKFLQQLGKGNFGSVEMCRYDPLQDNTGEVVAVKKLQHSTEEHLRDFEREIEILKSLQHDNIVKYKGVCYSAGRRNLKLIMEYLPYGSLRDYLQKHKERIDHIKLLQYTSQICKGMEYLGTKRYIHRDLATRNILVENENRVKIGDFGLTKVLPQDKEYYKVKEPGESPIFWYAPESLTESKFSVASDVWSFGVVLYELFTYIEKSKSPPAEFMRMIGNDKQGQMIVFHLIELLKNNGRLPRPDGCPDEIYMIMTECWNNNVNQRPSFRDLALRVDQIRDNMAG

| Sequence | phosphorylation enrichment |
| --- | --- |
| HPFHVYSQPGM [BAG3_Y114_P115S] | 0.984 |
| KLQKYYRQNPD [EHHADH_Y683] | 0.474 |
| KDGIGYISAAE [CALM2_Y100_N98I] | 0.589 |
| QFLMMYVWSAS [ABCD1_Y337_K336M] | 1.46 |
| GGRKGYGGFSR [RECQL5_Y478_D480G] | 0.51 |
| CHSDDYVHISL [TSC1_Y406] | 0.958 |
| PVQAADQKVVA [HBB_Y131_Y131D] | 0.893 |
| FKDVTYLKEEK [UBE3A_Y127_T129K] | 0.986 |
| PVVKLYATEGR [RP1_Y199_D202E] | 0.683 |
| VFFFSYLLKNH [PTEN_Y180_YF] | 1.11 |
| KPLMPYMRFSR [SMARCE1_Y73_YF] | 0.843 |
| SRDDDYETIAM [NPY1R_Y347] | 1.16 |
| EEGNPYFSSAR [MCCC2_Y520_YF] | 0.818 |
| DRPASYKKKSM [PDGFRA_Y768] | 0.494 |
| KANEYYPVVLI [ADAMTS18_Y765] | 2.79 |
| VDASYYGGRGV [ANTXR2_Y381] | 0.804 |
| MDDPRYGMCPL [ZNF100_Y6] | 1.27 |
| RGEKQYLATPL [ALOX12_Y295_A298T] | 0.931 |
| SLGSPYEQPPR [PDLIM4_Y137_G138E] | 0.673 |
| AFLEDYFTSTE [SRC_Y522] | 1.46 |
| AEMKRYSESSS [RAI14_Y869_A870S] | 0.678 |
| VECQVYAEDPF [PCCA_Y401_R399Q_YF] | 0.99 |
| TYGVVYKARNK [CDK2_Y19] | 0.485 |
| FSNVLYRPRGP [TMIGD2_Y197_A202P_YF] | 0.959 |
| EAAFVYVISSA [WNT4_Y113_A114V] | 1.33 |
| IFLGAYDRFLP [SLC22A5_Y486_V481I_YF] | 0.896 |
| LLKNMYLMLDN [STAT1_Y203_K201N] | 2.77 |
| KTGDFYDLFGG [PTPN11_Y63_N58K_YF] | 0.781 |
| YFCRWYRNRKS [EREG_Y144] | 0.683 |

The sequences below were run against Hck (UniProt P08631) in the same assay as above.
Hck, sequence (P08631 whole entry, looked up): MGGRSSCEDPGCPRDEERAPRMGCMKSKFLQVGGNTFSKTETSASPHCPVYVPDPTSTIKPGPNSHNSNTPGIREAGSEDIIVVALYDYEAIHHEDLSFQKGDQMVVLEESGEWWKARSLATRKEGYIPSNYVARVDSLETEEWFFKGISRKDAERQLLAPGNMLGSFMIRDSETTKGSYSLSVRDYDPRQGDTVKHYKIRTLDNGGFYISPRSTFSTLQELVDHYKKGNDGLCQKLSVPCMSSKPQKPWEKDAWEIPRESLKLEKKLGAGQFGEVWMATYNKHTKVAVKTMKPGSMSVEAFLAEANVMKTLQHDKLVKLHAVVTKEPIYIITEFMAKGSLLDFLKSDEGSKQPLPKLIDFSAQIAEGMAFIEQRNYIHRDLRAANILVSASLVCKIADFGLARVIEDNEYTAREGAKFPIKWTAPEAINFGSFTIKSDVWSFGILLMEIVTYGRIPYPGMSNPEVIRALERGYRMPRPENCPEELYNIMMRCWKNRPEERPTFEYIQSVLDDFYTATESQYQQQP

| Sequence | phosphorylation enrichment |
| --- | --- |
| HPFHVYSQPGM [BAG3_Y114_P115S] | 1.74 |
| KLQKYYRQNPD [EHHADH_Y683] | 0.448 |
| KDGIGYISAAE [CALM2_Y100_N98I] | 0.454 |
| QFLMMYVWSAS [ABCD1_Y337_K336M] | 0.912 |
| GGRKGYGGFSR [RECQL5_Y478_D480G] | 0.42 |
| CHSDDYVHISL [TSC1_Y406] | 0.554 |
| PVQAADQKVVA [HBB_Y131_Y131D] | 0.576 |
| FKDVTYLKEEK [UBE3A_Y127_T129K] | 0.442 |
| PVVKLYATEGR [RP1_Y199_D202E] | 0.794 |
| VFFFSYLLKNH [PTEN_Y180_YF] | 0.391 |
| KPLMPYMRFSR [SMARCE1_Y73_YF] | 0.493 |
| SRDDDYETIAM [NPY1R_Y347] | 0.737 |
| EEGNPYFSSAR [MCCC2_Y520_YF] | 0.638 |
| DRPASYKKKSM [PDGFRA_Y768] | 0.39 |
| KANEYYPVVLI [ADAMTS18_Y765] | 0.693 |
| VDASYYGGRGV [ANTXR2_Y381] | 1.92 |
| MDDPRYGMCPL [ZNF100_Y6] | 0.56 |
| RGEKQYLATPL [ALOX12_Y295_A298T] | 0.484 |
| SLGSPYEQPPR [PDLIM4_Y137_G138E] | 0.619 |
| AFLEDYFTSTE [SRC_Y522] | 0.549 |
| AEMKRYSESSS [RAI14_Y869_A870S] | 0.37 |
| VECQVYAEDPF [PCCA_Y401_R399Q_YF] | 0.587 |
| TYGVVYKARNK [CDK2_Y19] | 1.47 |
| FSNVLYRPRGP [TMIGD2_Y197_A202P_YF] | 0.479 |
| EAAFVYVISSA [WNT4_Y113_A114V] | 0.65 |
| IFLGAYDRFLP [SLC22A5_Y486_V481I_YF] | 3.39 |
| LLKNMYLMLDN [STAT1_Y203_K201N] | 0.921 |
| KTGDFYDLFGG [PTPN11_Y63_N58K_YF] | 2.04 |
| YFCRWYRNRKS [EREG_Y144] | 0.741 |

The sequences below were run on Fer (mouse) in the same assay as above.

| Sequence | phosphorylation enrichment |
| --- | --- |
| HPFHVYSQPGM [BAG3_Y114_P115S] | 0.719 |
| KLQKYYRQNPD [EHHADH_Y683] | 0.417 |
| KDGIGYISAAE [CALM2_Y100_N98I] | 0.464 |
| QFLMMYVWSAS [ABCD1_Y337_K336M] | 0.807 |
| GGRKGYGGFSR [RECQL5_Y478_D480G] | 0.36 |
| CHSDDYVHISL [TSC1_Y406] | 0.491 |
| PVQAADQKVVA [HBB_Y131_Y131D] | 0.482 |
| FKDVTYLKEEK [UBE3A_Y127_T129K] | 0.49 |
| PVVKLYATEGR [RP1_Y199_D202E] | 0.455 |
| VFFFSYLLKNH [PTEN_Y180_YF] | 0.537 |
| KPLMPYMRFSR [SMARCE1_Y73_YF] | 0.352 |
| SRDDDYETIAM [NPY1R_Y347] | 1.11 |
| EEGNPYFSSAR [MCCC2_Y520_YF] | 0.43 |
| DRPASYKKKSM [PDGFRA_Y768] | 0.306 |
| KANEYYPVVLI [ADAMTS18_Y765] | 2.12 |
| VDASYYGGRGV [ANTXR2_Y381] | 0.46 |
| MDDPRYGMCPL [ZNF100_Y6] | 0.607 |
| RGEKQYLATPL [ALOX12_Y295_A298T] | 0.571 |
| SLGSPYEQPPR [PDLIM4_Y137_G138E] | 0.474 |
| AFLEDYFTSTE [SRC_Y522] | 0.572 |
| AEMKRYSESSS [RAI14_Y869_A870S] | 0.38 |
| VECQVYAEDPF [PCCA_Y401_R399Q_YF] | 0.663 |
| TYGVVYKARNK [CDK2_Y19] | 0.46 |
| FSNVLYRPRGP [TMIGD2_Y197_A202P_YF] | 0.397 |
| EAAFVYVISSA [WNT4_Y113_A114V] | 0.561 |
| IFLGAYDRFLP [SLC22A5_Y486_V481I_YF] | 1.1 |
| LLKNMYLMLDN [STAT1_Y203_K201N] | 1.02 |
| KTGDFYDLFGG [PTPN11_Y63_N58K_YF] | 0.716 |
| YFCRWYRNRKS [EREG_Y144] | 0.478 |
